Measurements published in article PMC10673952 (2023).

Tests used:
FimI = target: T1, FimI (E. coli W3110, UniProt P39264 20-179); experiment: 37 °C, excess FimC
T1 chain: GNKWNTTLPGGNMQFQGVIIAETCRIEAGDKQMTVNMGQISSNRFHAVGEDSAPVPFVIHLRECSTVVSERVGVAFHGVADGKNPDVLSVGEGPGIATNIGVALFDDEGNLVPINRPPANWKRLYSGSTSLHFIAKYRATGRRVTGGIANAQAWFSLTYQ

[1] = target: T2, FimI-FimAtHis (the two subunits of the ternary FimCHisIA complex) (E. coli W3110 | E. coli, UniProt P39264 20-179; P04128 37-182); experiment: 37 °C, excess FimC; printed as 0.18 h-1
T2 chain 1: T1 chain
T2 chain 2: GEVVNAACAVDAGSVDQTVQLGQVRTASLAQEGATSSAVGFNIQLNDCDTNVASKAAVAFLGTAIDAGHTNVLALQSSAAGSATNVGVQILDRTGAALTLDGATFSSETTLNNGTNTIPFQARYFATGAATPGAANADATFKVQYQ

FimFt = target: T3, FimFt (E. coli); experiment: 37 °C, excess FimC; printed as 0.44 h-1
T3 chain: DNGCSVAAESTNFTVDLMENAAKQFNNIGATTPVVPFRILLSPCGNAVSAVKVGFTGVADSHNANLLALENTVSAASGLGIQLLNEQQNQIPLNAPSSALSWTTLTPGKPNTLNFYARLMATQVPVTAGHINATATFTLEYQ

[2] = target: T4, FimF-FimGt (the two subunits of the ternary FimCHisFG complex) (E. coli, UniProt P08189 21-176; P08190 24-167); experiment: 37 °C, excess FimC; printed as 0.49 h-1
T4 chain 1: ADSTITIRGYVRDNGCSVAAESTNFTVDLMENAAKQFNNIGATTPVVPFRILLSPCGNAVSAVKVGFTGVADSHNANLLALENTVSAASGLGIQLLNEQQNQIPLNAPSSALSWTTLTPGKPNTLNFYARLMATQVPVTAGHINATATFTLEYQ
T4 chain 2: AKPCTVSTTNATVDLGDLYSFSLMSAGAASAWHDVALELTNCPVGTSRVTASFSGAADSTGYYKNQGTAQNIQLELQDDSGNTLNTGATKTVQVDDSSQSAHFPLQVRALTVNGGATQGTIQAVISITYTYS

B1: FimCHis (FimC with C-terminal hexahistidine tag) (natural protein)
chain: GVALGATRVIYPAGQKQEQLAVTNNDENSTYLIQSWVENADGVKDGRFIVTPPLFAMKGKKENTLRILDATNNQLPQDRESLFWMNVKAIPSMDKSKLTENTLQLAIISRIKLYYRPAKLALPPDQAAEKLRFRRSANSLTLINPTPYYLTVTELNAGTRVLENALVPPMGESTVKLPSDAGSNITYRTINDYGALTPKMTGVME
FimI
  koff: 0.011 s⁻¹
[1]
  koff: 5e-05 s⁻¹
FimFt
  koff: 0.000122 s⁻¹
[2]
  koff: 0.000136 s⁻¹
